According to PMC11969024 (2025):

B1: peptide HD2 (from tick evasin EVA4) / CCL8 (biotinylated, synthetic) (parent complex)
chain 1: EEDDYTAYAPLTCYFT
chain 2: QPDSVSIPITCCFNVINRKIPIQRLESYTRITNIQCPKEAVIFKTKRGKEVCADPKERWVRDSMKHLDQIFQNLKP

Variants of: B1
For chain 1 A7C, the enrichment was -9.36 log2 (difference from the parental peptide).
chain 1 A7Y was tested, and the enrichment was -0.0899 log2 (difference from the parental peptide).
chain 1 A7T was tested, and the enrichment was 0.325 log2 (difference from the parental peptide).
In the case of chain 1 A7I, the enrichment is reported as 0.0548 log2 (difference from the parental peptide).
chain 1 A7K was tested, and the enrichment was 0.582 log2 (difference from the parental peptide).
In the case of chain 1 A7M, the enrichment is reported as 1.51 log2 (difference from the parental peptide).
For chain 1 A7V, the enrichment was -0.376 log2 (difference from the parental peptide).
In the case of chain 1 A7Q, the enrichment is reported as 0.712 log2 (difference from the parental peptide).
With chain 1 A7D the enrichment was 2.55 log2 (difference from the parental peptide).
In the case of chain 1 A7P, the enrichment is reported as 0.181 log2 (difference from the parental peptide).
In the case of chain 1 P10G, the enrichment is reported as -9.74 log2 (difference from the parental peptide).
With chain 1 P10S the enrichment was -8.71 log2 (difference from the parental peptide).
With chain 1 P10L the enrichment was -8.02 log2 (difference from the parental peptide).
For chain 1 P10Y, the enrichment was -6.5 log2 (difference from the parental peptide).
In the case of chain 1 P10Q, the enrichment is reported as -5.91 log2 (difference from the parental peptide).
For chain 1 P10C, the enrichment was -8.24 log2 (difference from the parental peptide).
With chain 1 P10A the enrichment was -8.23 log2 (difference from the parental peptide).
For chain 1 T12L, the enrichment was 0.285 log2 (difference from the parental peptide).
chain 1 T12E was tested, and the enrichment was -0.507 log2 (difference from the parental peptide).
For chain 1 T12P, the enrichment was -0.165 log2 (difference from the parental peptide).
With chain 1 T12M the enrichment was -0.433 log2 (difference from the parental peptide).
In the case of chain 1 T12I, the enrichment is reported as -0.26 log2 (difference from the parental peptide).
In the case of chain 1 T12G, the enrichment is reported as -3.67 log2 (difference from the parental peptide).
With chain 1 T12Q the enrichment was 0.904 log2 (difference from the parental peptide).
With chain 1 T12F the enrichment was -1.18 log2 (difference from the parental peptide).
With chain 1 T6P the enrichment was -1.36 log2 (difference from the parental peptide).
In the case of chain 1 T6A, the enrichment is reported as 1.59 log2 (difference from the parental peptide).
For chain 1 T6L, the enrichment was -2.32 log2 (difference from the parental peptide).
For chain 1 T6V, the enrichment was -3.12 log2 (difference from the parental peptide).
chain 1 T6G was tested, and the enrichment was 2.04 log2 (difference from the parental peptide).
chain 1 T6M was tested, and the enrichment was -0.0579 log2 (difference from the parental peptide).
With chain 1 T6S the enrichment was 2.06 log2 (difference from the parental peptide).
chain 1 T6Y was tested, and the enrichment was -0.847 log2 (difference from the parental peptide).
In the case of chain 1 T6F, the enrichment is reported as -4.21 log2 (difference from the parental peptide).
With chain 1 T6C the enrichment was -9.06 log2 (difference from the parental peptide).
For chain 1 Y5C, the enrichment was -7.1 log2 (difference from the parental peptide).
chain 1 Y5G was tested, and the enrichment was -5.04 log2 (difference from the parental peptide).
In the case of chain 1 Y5H, the enrichment is reported as -5.84 log2 (difference from the parental peptide).
chain 1 Y5A was tested, and the enrichment was -6.59 log2 (difference from the parental peptide).
For chain 1 Y8S, the enrichment was -4.18 log2 (difference from the parental peptide).
chain 1 Y8A was tested, and the enrichment was -1.36 log2 (difference from the parental peptide).
In the case of chain 1 Y8W, the enrichment is reported as 0.61 log2 (difference from the parental peptide).
In the case of chain 1 Y8N, the enrichment is reported as -4.48 log2 (difference from the parental peptide).
chain 1 Y8H was tested, and the enrichment was -4.28 log2 (difference from the parental peptide).
chain 1 Y8V was tested, and the enrichment was -4.32 log2 (difference from the parental peptide).
With chain 1 Y8F the enrichment was 1.24 log2 (difference from the parental peptide).
chain 1 Y8I was tested, and the enrichment was -8.9 log2 (difference from the parental peptide).
In the case of chain 1 C13K, the enrichment is reported as -4.94 log2 (difference from the parental peptide).
chain 1 C13R was tested, and the enrichment was -3.1 log2 (difference from the parental peptide).
With chain 1 C13V the enrichment was 0.0797 log2 (difference from the parental peptide).
With chain 1 C13Y the enrichment was -0.338 log2 (difference from the parental peptide).
chain 1 C13E was tested, and the enrichment was -4.45 log2 (difference from the parental peptide).
chain 1 C13T was tested, and the enrichment was -0.813 log2 (difference from the parental peptide).
For chain 1 C13D, the enrichment was -4.59 log2 (difference from the parental peptide).
With chain 1 C13Q the enrichment was -1.97 log2 (difference from the parental peptide).
With chain 1 C13M the enrichment was -0.513 log2 (difference from the parental peptide).
In the case of chain 1 C13S, the enrichment is reported as -1.77 log2 (difference from the parental peptide).
In the case of chain 1 D4V, the enrichment is reported as -3.88 log2 (difference from the parental peptide).
chain 1 D4A was tested, and the enrichment was -3.07 log2 (difference from the parental peptide).
For chain 1 D4L, the enrichment was -3.87 log2 (difference from the parental peptide).
chain 1 D4E was tested, and the enrichment was -0.292 log2 (difference from the parental peptide).
With chain 1 D4K the enrichment was -6.39 log2 (difference from the parental peptide).
With chain 1 D4C the enrichment was -7.17 log2 (difference from the parental peptide).
In the case of chain 1 D4F, the enrichment is reported as -4.31 log2 (difference from the parental peptide).
In the case of chain 1 D4M, the enrichment is reported as -3.9 log2 (difference from the parental peptide).
For chain 1 D4T, the enrichment was -2.87 log2 (difference from the parental peptide).
chain 1 D4H was tested, and the enrichment was -4.48 log2 (difference from the parental peptide).
In the case of chain 1 A9L, the enrichment is reported as -3.92 log2 (difference from the parental peptide).
chain 1 A9F was tested, and the enrichment was -4.42 log2 (difference from the parental peptide).
chain 1 A9D was tested, and the enrichment was -7.75 log2 (difference from the parental peptide).
For chain 1 A9C, the enrichment was -9.61 log2 (difference from the parental peptide).
With chain 1 A9H the enrichment was -2.52 log2 (difference from the parental peptide).
In the case of chain 1 A9R, the enrichment is reported as -0.86 log2 (difference from the parental peptide).
In the case of chain 1 A9W, the enrichment is reported as -5.37 log2 (difference from the parental peptide).
For chain 1 A9E, the enrichment was 1.36 log2 (difference from the parental peptide).
With chain 1 A9I the enrichment was -5.81 log2 (difference from the parental peptide).
In the case of chain 1 E2W, the enrichment is reported as -1.39 log2 (difference from the parental peptide).
For chain 1 E2V, the enrichment was -1.43 log2 (difference from the parental peptide).
With chain 1 E2L the enrichment was -1.7 log2 (difference from the parental peptide).
For chain 1 E2D, the enrichment was 1.04 log2 (difference from the parental peptide).
chain 1 E2M was tested, and the enrichment was -2.24 log2 (difference from the parental peptide).
For chain 1 E2A, the enrichment was -1.44 log2 (difference from the parental peptide).
chain 1 E2K was tested, and the enrichment was -2.67 log2 (difference from the parental peptide).
In the case of chain 1 E2H, the enrichment is reported as -2.03 log2 (difference from the parental peptide).
With chain 1 F15H the enrichment was 2.19 log2 (difference from the parental peptide).
With chain 1 F15C the enrichment was 0.0192 log2 (difference from the parental peptide).
With chain 1 F15L the enrichment was 1.43 log2 (difference from the parental peptide).
With chain 1 F15Y the enrichment was 1.8 log2 (difference from the parental peptide).
With chain 1 F15S the enrichment was 1.91 log2 (difference from the parental peptide).
For chain 1 F15N, the enrichment was 1.4 log2 (difference from the parental peptide).
With chain 1 F15Q the enrichment was 2.57 log2 (difference from the parental peptide).
With chain 1 F15V the enrichment was 2.21 log2 (difference from the parental peptide).
With chain 1 T16S the enrichment was 1.37 log2 (difference from the parental peptide).
chain 1 T16Q was tested, and the enrichment was 1.96 log2 (difference from the parental peptide).
In the case of chain 1 T16M, the enrichment is reported as 0.502 log2 (difference from the parental peptide).
For chain 1 T16R, the enrichment was 0.603 log2 (difference from the parental peptide).
With chain 1 T16K the enrichment was 1.41 log2 (difference from the parental peptide).
For chain 1 T16F, the enrichment was 0.115 log2 (difference from the parental peptide).
chain 1 T16N was tested, and the enrichment was 0.543 log2 (difference from the parental peptide).
For chain 1 T16V, the enrichment was 0.537 log2 (difference from the parental peptide).
In the case of chain 1 T16G, the enrichment is reported as 1.07 log2 (difference from the parental peptide).
chain 1 T16E was tested, and the enrichment was 1.25 log2 (difference from the parental peptide).
In the case of chain 1 T16L, the enrichment is reported as 0.738 log2 (difference from the parental peptide).
For chain 1 T16Y, the enrichment was -0.142 log2 (difference from the parental peptide).
chain 1 T16C was tested, and the enrichment was -2.39 log2 (difference from the parental peptide).
chain 1 T16W was tested, and the enrichment was -0.46 log2 (difference from the parental peptide).
In the case of chain 1 L11M, the enrichment is reported as 2.26 log2 (difference from the parental peptide).
In the case of chain 1 L11F, the enrichment is reported as -0.0302 log2 (difference from the parental peptide).
In the case of chain 1 L11G, the enrichment is reported as -1.12 log2 (difference from the parental peptide).
For chain 1 L11R, the enrichment was 1.57 log2 (difference from the parental peptide).
chain 1 L11A was tested, and the enrichment was 0.754 log2 (difference from the parental peptide).
For chain 1 L11D, the enrichment was -2.06 log2 (difference from the parental peptide).
For chain 1 L11N, the enrichment was 0.274 log2 (difference from the parental peptide).
For chain 1 L11H, the enrichment was 1.86 log2 (difference from the parental peptide).
In the case of chain 1 L11S, the enrichment is reported as 1.65 log2 (difference from the parental peptide).
In the case of chain 1 Y14F, the enrichment is reported as 0.904 log2 (difference from the parental peptide).
chain 1 Y14Q was tested, and the enrichment was 0.652 log2 (difference from the parental peptide).
chain 1 Y14T was tested, and the enrichment was 1.09 log2 (difference from the parental peptide).
In the case of chain 1 Y14S, the enrichment is reported as -0.238 log2 (difference from the parental peptide).
chain 1 Y14D was tested, and the enrichment was -0.707 log2 (difference from the parental peptide).
In the case of chain 1 Y14E, the enrichment is reported as -0.645 log2 (difference from the parental peptide).
For chain 1 Y14K, the enrichment was -1.21 log2 (difference from the parental peptide).
chain 1 Y14H was tested, and the enrichment was 1.41 log2 (difference from the parental peptide).
In the case of chain 1 Y14V, the enrichment is reported as 1.05 log2 (difference from the parental peptide).
In the case of chain 1 Y14G, the enrichment is reported as -2.18 log2 (difference from the parental peptide).
chain 1 E1C was tested, and the enrichment was -8.27 log2 (difference from the parental peptide).
In the case of chain 1 E1F, the enrichment is reported as -2.08 log2 (difference from the parental peptide).
In the case of chain 1 E1P, the enrichment is reported as -0.418 log2 (difference from the parental peptide).
chain 1 E1Q was tested, and the enrichment was -0.418 log2 (difference from the parental peptide).
With chain 1 E1K the enrichment was -2.59 log2 (difference from the parental peptide).
chain 1 E1A was tested, and the enrichment was -0.674 log2 (difference from the parental peptide).
In the case of chain 1 E1L, the enrichment is reported as -1.2 log2 (difference from the parental peptide).
With chain 1 E1G the enrichment was -0.383 log2 (difference from the parental peptide).
With chain 1 E1Y the enrichment was -0.879 log2 (difference from the parental peptide).
For chain 1 E1D, the enrichment was 1.88 log2 (difference from the parental peptide).
chain 1 E1V was tested, and the enrichment was -0.973 log2 (difference from the parental peptide).
With chain 1 D3Y the enrichment was -2.62 log2 (difference from the parental peptide).
With chain 1 D3N the enrichment was -1.8 log2 (difference from the parental peptide).
For chain 1 D3H, the enrichment was -2.58 log2 (difference from the parental peptide).
With chain 1 D3M the enrichment was -3.45 log2 (difference from the parental peptide).
For chain 1 D3R, the enrichment was -4.97 log2 (difference from the parental peptide).
For chain 1 D3G, the enrichment was -2.58 log2 (difference from the parental peptide).
chain 1 D3I was tested, and the enrichment was -3.47 log2 (difference from the parental peptide).
For chain 1 D3K, the enrichment was -4.88 log2 (difference from the parental peptide).
With chain 1 D3L the enrichment was -2.94 log2 (difference from the parental peptide).
For chain 1 D3A, the enrichment was -1.64 log2 (difference from the parental peptide).
For chain 1 D3C, the enrichment was -7.83 log2 (difference from the parental peptide).
With chain 1 D3P the enrichment was -2.64 log2 (difference from the parental peptide).
For chain 1 D3Q, the enrichment was -2.92 log2 (difference from the parental peptide).
In the case of chain 1 D3T, the enrichment is reported as -3.23 log2 (difference from the parental peptide).
